Source: patent US20250304919A1 (MASSEY VENTURES, published 2025)

Molecular target: T1, human fibronectin (human, UniProt P02751 32-2477)
T1 construct: also called Fn; analyte
Experiment: lateral flow dipstick; reference LOD of 6.4 ng/mL is cited from the literature

T1 sequence (P02751 32-2477 limits assumed): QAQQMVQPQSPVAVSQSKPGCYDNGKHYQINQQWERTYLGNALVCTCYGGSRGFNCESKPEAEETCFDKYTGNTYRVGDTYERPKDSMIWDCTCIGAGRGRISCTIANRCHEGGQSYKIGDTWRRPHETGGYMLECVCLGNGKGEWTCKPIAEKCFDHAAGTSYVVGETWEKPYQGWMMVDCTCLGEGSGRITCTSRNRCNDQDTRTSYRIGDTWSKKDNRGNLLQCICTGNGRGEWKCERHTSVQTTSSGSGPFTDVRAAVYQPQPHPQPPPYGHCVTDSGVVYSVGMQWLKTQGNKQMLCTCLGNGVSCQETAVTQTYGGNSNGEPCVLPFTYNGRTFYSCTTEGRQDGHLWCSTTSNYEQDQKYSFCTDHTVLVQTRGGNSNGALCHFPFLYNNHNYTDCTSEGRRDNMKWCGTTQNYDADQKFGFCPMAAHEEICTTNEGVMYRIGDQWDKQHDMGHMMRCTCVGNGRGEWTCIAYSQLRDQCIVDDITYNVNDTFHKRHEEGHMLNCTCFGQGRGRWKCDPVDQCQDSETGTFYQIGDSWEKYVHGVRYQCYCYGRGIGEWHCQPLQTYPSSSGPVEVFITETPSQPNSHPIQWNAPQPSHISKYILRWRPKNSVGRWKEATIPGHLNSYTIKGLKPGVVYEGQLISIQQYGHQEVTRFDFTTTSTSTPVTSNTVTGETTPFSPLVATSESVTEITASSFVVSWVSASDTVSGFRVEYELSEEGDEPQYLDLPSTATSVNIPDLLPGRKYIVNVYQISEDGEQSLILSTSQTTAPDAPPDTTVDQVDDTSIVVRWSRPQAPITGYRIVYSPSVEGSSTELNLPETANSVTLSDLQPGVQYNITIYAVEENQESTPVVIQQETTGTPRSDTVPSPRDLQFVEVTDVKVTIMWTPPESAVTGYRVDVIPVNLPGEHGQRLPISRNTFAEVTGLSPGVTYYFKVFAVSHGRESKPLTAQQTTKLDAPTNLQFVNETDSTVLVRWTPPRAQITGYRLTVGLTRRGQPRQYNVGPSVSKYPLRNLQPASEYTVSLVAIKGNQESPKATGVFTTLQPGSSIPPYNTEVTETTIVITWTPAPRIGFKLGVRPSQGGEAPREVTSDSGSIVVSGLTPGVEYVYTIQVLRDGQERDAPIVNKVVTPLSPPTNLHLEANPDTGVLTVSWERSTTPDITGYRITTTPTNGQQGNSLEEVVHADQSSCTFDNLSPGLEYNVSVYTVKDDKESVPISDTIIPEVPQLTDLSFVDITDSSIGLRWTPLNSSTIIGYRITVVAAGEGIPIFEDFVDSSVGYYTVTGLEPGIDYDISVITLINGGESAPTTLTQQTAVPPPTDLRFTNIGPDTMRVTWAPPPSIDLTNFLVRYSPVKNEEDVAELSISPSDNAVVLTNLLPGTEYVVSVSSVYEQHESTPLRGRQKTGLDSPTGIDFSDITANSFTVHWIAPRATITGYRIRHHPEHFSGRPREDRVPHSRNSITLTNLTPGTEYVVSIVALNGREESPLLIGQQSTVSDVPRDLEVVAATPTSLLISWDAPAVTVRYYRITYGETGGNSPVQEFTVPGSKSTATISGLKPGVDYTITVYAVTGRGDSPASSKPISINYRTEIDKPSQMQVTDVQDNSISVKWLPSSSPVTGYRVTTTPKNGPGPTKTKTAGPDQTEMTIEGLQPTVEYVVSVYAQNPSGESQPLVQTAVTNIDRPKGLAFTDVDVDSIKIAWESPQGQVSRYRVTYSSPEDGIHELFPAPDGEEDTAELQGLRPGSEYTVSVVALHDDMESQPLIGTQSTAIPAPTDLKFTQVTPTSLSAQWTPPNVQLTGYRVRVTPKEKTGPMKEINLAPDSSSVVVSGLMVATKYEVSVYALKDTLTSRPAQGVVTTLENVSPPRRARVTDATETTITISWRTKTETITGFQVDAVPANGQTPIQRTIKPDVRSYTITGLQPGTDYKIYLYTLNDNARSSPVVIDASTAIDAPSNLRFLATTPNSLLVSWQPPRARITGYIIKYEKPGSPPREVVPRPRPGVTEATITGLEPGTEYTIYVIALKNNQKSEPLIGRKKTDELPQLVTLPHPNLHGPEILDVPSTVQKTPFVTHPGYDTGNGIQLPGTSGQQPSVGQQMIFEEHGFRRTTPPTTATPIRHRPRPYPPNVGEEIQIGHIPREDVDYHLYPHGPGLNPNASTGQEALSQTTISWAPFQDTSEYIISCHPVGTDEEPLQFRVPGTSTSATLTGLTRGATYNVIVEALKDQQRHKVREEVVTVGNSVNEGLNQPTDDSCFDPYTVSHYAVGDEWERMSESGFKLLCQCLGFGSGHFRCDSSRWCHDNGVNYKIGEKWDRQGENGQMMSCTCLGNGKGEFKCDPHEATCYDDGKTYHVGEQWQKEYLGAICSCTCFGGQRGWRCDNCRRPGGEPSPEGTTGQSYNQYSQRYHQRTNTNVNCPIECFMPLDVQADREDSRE

B1: BSFnano711G8FnB2 nanorods displaying the FnB-pIII fusion (fibronectin-binding repeats of Streptococcus pyogenes serum opacity factor Sof22 fused to pIII) (other)
chain: AAQPAGGHGPIVDIVEDTGTGVEGGAQNGVVSTQENKDPIVDITEDTQPGMSGSNDATVVEEDTTPQRPDVLVGGQSDPIDITEDTQPGMSGSNDATVVEEDTVPKRPDILVGGQSDPIDITEDTQPGMSGSNDATVIEEDTKPKRFFHFDNEAAAPGGAETVESCLAKPHTENSFTNVWKDDKTLDRYANYEGCLWNATGVVVCTGDETQCYGTWVPIGLAIPENEGGGSEGGGSEGGGSEGGGTKPPEYGDRPIPGYTYINPLDGTYPPGTEQNPANPNPSLEESQPLNTFMFQNNRFRNRQGALTVYTGTVTQGTDPVKTYYQYTPVSSKAMYDAYWNGKFRDCAFHSGFNEDPFVCEYQGQSSDLPQPPVNAGGGSGGGSGGGSEGGGSEGGGSEGGGSEGGGSGGGSGSGDFDYEKMANANKGAMTENADENALQSDAKGKLDSVATDYGAAIDGFIGDVSGLANGNGATGDFAGSNSQMAQVGDGDNSPLMNNFRQYLPSLPQSVECRPFVFGAGKPYEFSIDCDKINLFRGVFAFLLYVATFMYVFSTFANILRNKES
  fold improvement of LOD against FnB nanorods of the phage system (Sattar et al., 2015): 160 fold
